{
  "source": "paper PMC11267847",
  "assay_in_all_cases": "EMSA",
  "details_in_all_cases": "EMSA kit (Biyuntian): 50 ng biotin-labeled DNA, 2 uL binding buffer, 2 ug protein; competitors 5 ug unlabeled DNA; buffer composition, pH and temperature not …",
  "key": {"[1]": {"target": "T1, Gsm1p (Pichia pastoris (Komagataella phaffii), strain SMD1168?) (UniProt C4R1K8)", "T1 sequence": "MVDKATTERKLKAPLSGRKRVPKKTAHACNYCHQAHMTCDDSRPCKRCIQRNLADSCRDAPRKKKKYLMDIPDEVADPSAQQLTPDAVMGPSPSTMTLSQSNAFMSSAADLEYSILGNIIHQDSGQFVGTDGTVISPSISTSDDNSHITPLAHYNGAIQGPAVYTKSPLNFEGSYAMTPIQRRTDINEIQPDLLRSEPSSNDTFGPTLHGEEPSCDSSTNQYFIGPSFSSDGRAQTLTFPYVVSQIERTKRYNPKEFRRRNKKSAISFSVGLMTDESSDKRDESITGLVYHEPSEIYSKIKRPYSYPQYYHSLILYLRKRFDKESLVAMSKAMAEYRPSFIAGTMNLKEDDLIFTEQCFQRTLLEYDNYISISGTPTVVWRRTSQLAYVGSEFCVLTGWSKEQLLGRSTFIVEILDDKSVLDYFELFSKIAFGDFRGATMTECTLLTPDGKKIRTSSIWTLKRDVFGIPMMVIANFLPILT"}, "[2]": {"target": "T2, Loc1p (Pichia pastoris (Komagataella phaffii), cloned from P. pastoris genome, strain SMD1168?) (UniProt C4QX18)", "T2 sequence": "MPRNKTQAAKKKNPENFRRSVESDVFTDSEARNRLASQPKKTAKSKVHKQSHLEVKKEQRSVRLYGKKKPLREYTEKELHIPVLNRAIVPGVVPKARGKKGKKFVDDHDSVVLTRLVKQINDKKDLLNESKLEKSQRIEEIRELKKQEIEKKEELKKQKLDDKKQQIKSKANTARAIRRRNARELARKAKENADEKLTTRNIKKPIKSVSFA"}, "[3]": {"target": "T3, Hot1p (Pichia pastoris (Komagataella phaffii), strain SMD1168?) (UniProt C4QW90)", "T3 sequence": "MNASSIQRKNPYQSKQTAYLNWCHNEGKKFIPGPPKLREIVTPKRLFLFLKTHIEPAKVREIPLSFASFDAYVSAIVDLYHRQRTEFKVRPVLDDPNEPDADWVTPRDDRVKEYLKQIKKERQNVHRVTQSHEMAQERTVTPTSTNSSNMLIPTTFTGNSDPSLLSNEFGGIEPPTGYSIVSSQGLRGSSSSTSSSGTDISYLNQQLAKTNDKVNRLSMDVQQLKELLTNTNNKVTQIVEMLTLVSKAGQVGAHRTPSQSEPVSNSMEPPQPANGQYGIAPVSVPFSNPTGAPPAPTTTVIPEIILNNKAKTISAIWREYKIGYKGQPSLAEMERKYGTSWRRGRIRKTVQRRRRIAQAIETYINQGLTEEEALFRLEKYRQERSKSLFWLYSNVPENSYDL"}},
  "data": [
    {"sequence": "CATGCGTCCGCCCGCTATTATTGCCAGCGACGGCCGGGACTTTTCCATCCCTGGGCTGCTAGGTCGGGTACACGACCTCCGTTTTACCCGCAACGTAATGCTGGGAAGAGCATTGCTGCAAGGGGGCCGTAGAAGAAGCTCTCCAGCAGAGTAAAATTTCCTAGGGACGGTAACGGGCGGTGGAAGGAGAGAGAAGGGAAGAGA (double strand) [pGAP-BC]", "values": [
      {"measurement": "binding", "setting": "[1]", "result": "binds"},
      {"measurement": "binding", "setting": "[2]", "result": "binds"},
      {"measurement": "binding", "setting": "[3]", "result": "binds"}
    ]},
    {"sequence": "AGCAGCCCAGGGATGGAAAAGTCCCGGCCGTCGCTGGCAATAATAGCGGGCGGACGCATGTCATGAGATTATTGGAAACCACCAGAATCGAATATAAAAGGCGAACACCTTTCCCAATTTTGGTTTCTCCTGACCCAAAGACTTTAAATTTAATTTATTTGTCCCTATTTCAATCAATTGAACAACTATTTCGAAACG (double strand) [pGAP-CD]", "values": [
      {"measurement": "binding", "setting": "[1]", "result": "binds"},
      {"measurement": "binding", "setting": "[2]", "result": "no binding"},
      {"measurement": "binding", "setting": "[3]", "result": "binds"}
    ]},
    {"sequence": "AGATCTTTTTTGTAGAAATGTCTTGGTGTCCTCGTCCAATCAGGTAGCCATCTCTGAAATATCTGGCTCCGTTGCAACTCCGAACGACCTGCTGGCAACGTAAAATTCTCCGGGGTAAAACTTAAATGTGGAGTAATGGAACCAGAAACGTCTCTTCCCTTCTCTCTCCTTCCACCGCCCGTTACCGTCCCTAGGAAATTTTAC (double strand) [pGAP-AB]", "values": [
      {"measurement": "binding", "setting": "[1]", "result": "binds"},
      {"measurement": "binding", "setting": "[2]", "result": "binds"},
      {"measurement": "binding", "setting": "[3]", "result": "binds"}
    ]}
  ]
}
